In patent US20180327473A1 (published 2018):
Numbering of substitutions follows the chain as printed.

T1: human alpha fetoprotein (hAFP158) peptide on HLA-A2 (human)
T1 peptide: FMNKFIYEI

B1: mTCR-1 (TCR, V domains shown)
Valpha: QQKVQQSPESLIVPEGGMASLNCTSSDRNVDYFWWYRQHSGKSPKMLMSIFSNGEKEEGRFTVHLNKASLHTSLHIRDSQPSDSALYLCAASITNAYKVIFGKGTHLHVLP
Vbeta: EAAVTQSPRNKVTVTGGNVTLSCRQTNSHNYMYWYRQDTGHGLRLIHYSYGAGNLQIGDVPDGYKATRTTQEDFFLLLELASPSQTSLYFCASSDAGTSQNTLYFGAGTRLSVL
B2: mTCR-8 (TCR, V domains shown)
Valpha: B1 Valpha with T94S, N95G, A96G, I100V, K103S, H106R, H108L, L110S
Vbeta: B1 Vbeta
B3: mTCR-17 (TCR, V domains shown)
Valpha: B1 Valpha with I93M, N95G, A96G, I100V, K103S, H106R, H108L, L110S
Vbeta: B1 Vbeta
B4: mTCR-11 (TCR, V domains shown)
Valpha: B1 Valpha with I93K, N95G, A96G, I100V, K103S, H106R, H108L, L110S
Vbeta: B1 Vbeta
B5: mTCR-38 (TCR, V domains shown)
Valpha: B1 Valpha with S92T, I93L, N95G, A96G, I100V, K103S, H106R, H108L, L110S
Vbeta: B1 Vbeta
B6: mTCR-6 (TCR, V domains shown)
Valpha: B1 Valpha with I93M, T94I
Vbeta: B1 Vbeta with T98V
B7: mTCR-3 (TCR, V domains shown)
Valpha: B1 Valpha with I93M, T94A, N95G, A96G, I100V, K103S, H106R, H108L, L110S
Vbeta: B1 Vbeta with S99A
B8: mTCR-10 (TCR, V domains shown)
Valpha: B1 Valpha with T94V, N95G, A96G, I100V, K103S, H106R, H108L, L110S
Vbeta: B1 Vbeta with A96H, S99G
B9: mTCR-2 (TCR, V domains shown)
Valpha: B1 Valpha with I93T, T94V
Vbeta: B1 Vbeta

Target: T1, human alpha fetoprotein (hAFP158) …
Test: multimer staining

Question: Does B1 bind?
Answer: recognises

Question: Does B2 bind?
Answer: recognises

Question: Does B3 bind?
Answer: recognises

Question: Does B4 bind?
Answer: recognises

Question: Does B5 bind?
Answer: recognises

Question: Does B6 bind?
Answer: recognises

Question: Does B7 bind?
Answer: recognises

Question: Does B8 bind?
Answer: recognises

Question: Does B9 bind?
Answer: recognises
